How the values were obtained:
HLA-A*01:01 [1] = assay: IEDB peptide-MHC binding, purified MHC/direct/fluorescence; filed as Kd, often an IC50 or EC50 that approximates it; ≥ and ≤ were set here for values at or beyond the usual limits of such assays
HLA-A*29:02 = assay: as above
HLA-B*27:05 = assay: as above
HLA-B*07:02 [2] = assay: as above; conditions: source organism: Mycobacterium tuberculosis
HLA-B*58:01 = assay: as above
HLA-A*03:01 [3] = assay: as above
HLA-B*46:01 = assay: as above
HLA-A*11:01 [4] = assay: as above
HLA-A*31:01 [5] = assay: as above
HLA-B*44:02 = assay: as above
HLA-B*57:01 = assay: as above
HLA-A*69:01 = assay: as above
HLA-A*02:01 [6] = assay: IEDB peptide-MHC binding, purified MHC/competitive/fluorescence; filed as Kd, often an IC50 or EC50 that approximates it; ≥ and ≤ were set here for values at or beyond the usual limits of such assays; conditions: source organism: Mycobacterium tuberculosis variant bovis BCG str. Pasteur 1173P2
HLA-B*40:02 = assay: IEDB peptide-MHC binding, purified MHC/competitive/radioactivity; filed as Kd, often an IC50 or EC50 that approximates it; ≥ and ≤ were set here for values at or beyond the usual limits of such assays; conditions: source organism: Hepatitis C virus (isolate 1)
HLA-B*07:02 [7] = assay: as above; conditions: source organism: Hepatitis C virus (isolate 1)
HLA-B*18:01 [8] = assay: as above; conditions: source organism: Hepatitis C virus (isolate 1)
HLA-B*44:03 = assay: as above; conditions: source organism: Hepatitis C virus (isolate 1)
HLA-B*51:01 [9] = assay: as above; conditions: source organism: Hepatitis C virus (isolate 1)
HLA-A*02:02 = assay: as above; conditions: source organism: Hepatitis C virus (isolate 1)
HLA-A*03:01 [10] = assay: as above; conditions: source organism: Hepatitis C virus (isolate 1)
HLA-A*68:01 = assay: as above; conditions: source organism: Hepatitis C virus (isolate 1)
HLA-A*68:02 = assay: as above; conditions: source organism: Hepatitis C virus (isolate 1)
HLA-A*11:01 [11] = assay: as above; conditions: source organism: Hepatitis C virus (isolate 1)
HLA-A*31:01 [12] = assay: as above; conditions: source organism: Hepatitis C virus (isolate 1)
HLA-A*01:01 [13] = assay: as above; conditions: source organism: Hepatitis C virus (isolate 1)
HLA-B*40:01 [14] = assay: as above; conditions: source organism: Hepatitis C virus (isolate 1)
HLA-A*02:03 = assay: as above; conditions: source organism: Hepatitis C virus (isolate 1)
HLA-B*35:01 = assay: as above; conditions: source organism: Hepatitis C virus (isolate 1)
HLA-B*53:01 = assay: as above; conditions: source organism: Hepatitis C virus (isolate 1)
HLA-A*33:01 = assay: as above; conditions: source organism: Hepatitis C virus (isolate 1)
HLA-B*54:01 = assay: as above; conditions: source organism: Hepatitis C virus (isolate 1)
HLA-A*02:01 [15] = assay: as above; conditions: source organism: Hepatitis C virus (isolate 1)
HLA-A*02:06 = assay: as above; conditions: source organism: Hepatitis C virus (isolate 1)
HLA-B*08:01 = assay: IEDB peptide-MHC binding, purified MHC/direct/fluorescence; filed as Kd, often an IC50 or EC50 that approximates it; ≥ and ≤ were set here for values at or beyond the usual limits of such assays
HLA-B*48:01 = assay: as above
HLA-B*18:01 [16] = assay: as above
HLA-B*40:01 [17] = assay: as above
HLA-A*02:01 [18] = assay: as above
HLA-B*15:01 = assay: as above; conditions: source organism: Mycobacterium tuberculosis variant bovis
HLA-B*51:01 [19] = assay: IEDB peptide-MHC binding, purified MHC/competitive/fluorescence; filed as Kd, often an IC50 or EC50 that approximates it; ≥ and ≤ were set here for values at or beyond the usual limits of such assays; conditions: source organism: Mycobacterium tuberculosis variant bovis
[20] = source organism: Mammarenavirus juninense
[21] = source organism: Mycobacterium tuberculosis
[22] = source organism: Mycobacterium tuberculosis C
[23] = source organism: Mycobacterium tuberculosis variant bovis

## ATDPVEMAL
HLA-A*01:01 [1]; [20]
  Kd: 0.308 µM
HLA-A*29:02; [20]
  Kd: ≥ 20 µM

## IQAVFGFSL
HLA-B*27:05; [21]
  Kd: ≥ 20 µM
HLA-B*07:02 [2]
  Kd: ≥ 20 µM
HLA-B*58:01; [21]
  Kd: ≥ 20 µM
HLA-A*03:01 [3]; [21]
  Kd: ≥ 20 µM
HLA-B*46:01; [21]
  Kd: ≥ 20 µM
HLA-A*11:01 [4]; [21]
  Kd: ≥ 20 µM
HLA-A*31:01 [5]; [21]
  Kd: ≥ 20 µM
HLA-B*44:02; [21]
  Kd: ≥ 20 µM
HLA-A*01:01 [1]; [21]
  Kd: ≥ 20 µM
HLA-B*57:01; [21]
  Kd: ≥ 20 µM
HLA-A*69:01; [21]
  Kd: ≥ 20 µM
HLA-A*29:02; [21]
  Kd: ≥ 20 µM
HLA-A*02:01 [6]
  Kd: 1.35 µM

## HSKKKCDEL
HLA-B*40:02
  Kd: ≥ 77.3 µM
HLA-B*07:02 [7]
  Kd: ≥ 77.5 µM
HLA-B*18:01 [8]
  Kd: ≥ 77.5 µM
HLA-B*44:03
  Kd: ≥ 78.2 µM
HLA-B*51:01 [9]
  Kd: ≥ 77.5 µM
HLA-A*02:02
  Kd: ≥ 70 µM
HLA-A*03:01 [10]
  Kd: ≥ 78 µM
HLA-A*68:01
  Kd: ≥ 77.7 µM
HLA-A*68:02
  Kd: ≥ 69.8 µM
HLA-A*11:01 [11]
  Kd: ≥ 37.3 µM
HLA-A*31:01 [12]
  Kd: ≥ 65 µM
HLA-A*01:01 [13]
  Kd: 3.52 µM
HLA-B*40:01 [14]
  Kd: ≥ 76.2 µM
HLA-A*02:03
  Kd: ≥ 78.1 µM
HLA-B*35:01
  Kd: ≥ 77.4 µM
HLA-B*53:01
  Kd: ≥ 78.2 µM
HLA-A*33:01
  Kd: ≥ 77.7 µM
HLA-B*54:01
  Kd: ≥ 78.1 µM
HLA-A*02:01 [15]
  Kd: ≥ 69.4 µM
HLA-A*02:06
  Kd: ≥ 77.1 µM

## IIRTENRPL
HLA-B*08:01; [22]
  Kd: 3.06 µM
HLA-B*27:05; [22]
  Kd: ≥ 20 µM
HLA-B*48:01; [22]
  Kd: ≥ 20 µM
HLA-B*18:01 [16]; [22]
  Kd: ≥ 20 µM
HLA-B*58:01; [22]
  Kd: ≥ 20 µM
HLA-A*03:01 [3]; [22]
  Kd: ≥ 20 µM
HLA-B*46:01; [22]
  Kd: ≥ 20 µM
HLA-A*11:01 [4]; [22]
  Kd: ≥ 20 µM
HLA-A*31:01 [5]; [22]
  Kd: ≥ 20 µM
HLA-B*44:02; [22]
  Kd: ≥ 20 µM
HLA-A*01:01 [1]; [22]
  Kd: ≥ 20 µM
HLA-B*40:01 [17]; [22]
  Kd: ≥ 20 µM
HLA-B*57:01; [22]
  Kd: ≥ 20 µM
HLA-A*69:01; [22]
  Kd: ≥ 20 µM
HLA-A*02:01 [18]; [22]
  Kd: ≥ 20 µM
HLA-A*29:02; [22]
  Kd: ≥ 20 µM

## TPREAPYEL
HLA-B*08:01; [23]
  Kd: 7 µM
HLA-B*27:05; [23]
  Kd: ≥ 20 µM
HLA-B*48:01; [23]
  Kd: ≥ 20 µM
HLA-B*18:01 [16]; [23]
  Kd: ≥ 20 µM
HLA-B*58:01; [23]
  Kd: ≥ 20 µM
HLA-A*03:01 [3]; [23]
  Kd: ≥ 20 µM
HLA-B*46:01; [23]
  Kd: ≥ 20 µM
HLA-A*11:01 [4]; [23]
  Kd: ≥ 20 µM
HLA-A*31:01 [5]; [23]
  Kd: ≥ 20 µM
HLA-B*44:02; [23]
  Kd: ≥ 20 µM
HLA-A*01:01 [1]; [23]
  Kd: ≥ 20 µM
HLA-B*40:01 [17]; [23]
  Kd: ≥ 20 µM
HLA-B*15:01
  Kd: ≥ 20 µM
HLA-B*57:01; [23]
  Kd: ≥ 20 µM
HLA-A*69:01; [23]
  Kd: ≥ 20 µM
HLA-A*02:01 [18]; [23]
  Kd: ≥ 20 µM
HLA-A*29:02; [23]
  Kd: ≥ 20 µM
HLA-B*51:01 [19]
  Kd: ≥ 20 µM

From the Immune Epitope Database (IEDB)
